From patent US10925971B2, “Methods of treating PRLR positive breast cancer” (Regeneron Pharmaceuticals, Inc., priority 2016, dated 2021)

T1: native PRLR expressing T47D cells (Homo sapiens, UniProt P16471)
T1 construct: a native PRLR expressing cell line (T47D); endogenous in cells; host or cells: T47D
T1 sequence (P16471 25-622): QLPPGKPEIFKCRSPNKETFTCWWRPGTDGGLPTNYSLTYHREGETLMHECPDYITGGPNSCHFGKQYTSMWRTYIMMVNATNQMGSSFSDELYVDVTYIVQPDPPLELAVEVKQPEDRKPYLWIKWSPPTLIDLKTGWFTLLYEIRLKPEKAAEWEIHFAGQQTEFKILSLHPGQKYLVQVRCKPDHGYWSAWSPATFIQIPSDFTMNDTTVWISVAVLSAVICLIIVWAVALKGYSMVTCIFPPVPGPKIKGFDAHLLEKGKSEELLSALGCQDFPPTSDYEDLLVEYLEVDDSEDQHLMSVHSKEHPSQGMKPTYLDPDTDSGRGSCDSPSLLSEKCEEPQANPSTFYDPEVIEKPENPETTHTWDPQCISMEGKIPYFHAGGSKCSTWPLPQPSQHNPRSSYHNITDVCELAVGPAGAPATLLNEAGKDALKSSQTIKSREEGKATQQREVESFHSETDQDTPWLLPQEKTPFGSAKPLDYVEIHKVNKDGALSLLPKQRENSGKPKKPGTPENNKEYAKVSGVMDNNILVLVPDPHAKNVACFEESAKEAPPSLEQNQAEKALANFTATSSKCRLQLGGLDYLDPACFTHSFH

B1: H1H6797P: fully human anti-PRLR antibody, human IgG1 Fc; HCVR/LCVR SEQ ID NOs 178/186 (antibody, V domains shown)
VH: EVQLVESGGGLVQPGGSLRLSCIVSGFTFSGSWMSWVRQLPGKGLEWVANIKEDGSDSYYVDSVEGRFTISRDNAKSSLYLQMNSLRVDDTAVYFCARARTVPLHYWGQGTLVTVSS
VL: DIQMTQSPSTLSASVGDRVTITCRASQSINIWLAWYQQKPGKAPKLLIYRASYLESGVPSSFAGGGSGTEFTLTISSLQPDDFGTYYCQHYNSYPFTFGQGTKLEIK
B2: H1H6975N: anti-PRLR antibody, human IgG1 Fc form of H2M6975N of Table 1; HCVR/LCVR SEQ ID NOs 370/378 (antibody, V domains shown)
VH: EVHLVESGGGLVQPGGSLRLSCAASGFTFSSYEMNWVRQTPGKGLEWISHISSRSVIIYYADSVKGRFTISRDNAKNSLFLQMNSLRAEDTAVYFCAGITIFGIPEYWGQGTLVTVSS
VL: EIVLTQSPATLSLSPGERATLSCRASQSVSSYFAWYQQKPGQAPRLLIYDASSRATGIPTRFSGSGSGTDFTLTISSLEPEDFAVYYCQQRSSWPITFGQGTRLEIK
modifications: human IgG1 Fc
B3: H1H6795P: fully human anti-PRLR antibody, human IgG1 Fc; HCVR/LCVR SEQ ID NOs 162/170 (antibody, V domains shown)
VH: QVQLVQSGAEVKKPGASVKVSCKASGYTFGTSGITWVRQAPGQGLEWMGWSSAYNGKTDYAQKFQDRVTMTTDTSTTTGYMEMRSLTSDDTAVYYCTTVVRRPFDFWGQGTLVTVSS
VL: DIQMTQSPSSLSASVGDRVTITCRASQDINNFLAWFQQKPGKAPKSLIYAASSLQSGVPSKFSGGGSGTDFALTISSLQPEDFATYYCQQYSSYPITFGQGTRLEIK
B4: H1H6958N2-DM1: anti-PRLR antibody H1H6958N2 conjugated to the maytansinoid DM1 through an SMCC linker (conjugate)
VH: QVQLVESGGGVVQPGRSLRLSCGASGFTFRNYGMQWVRQGPGKGLEWVTLISFDGNDKYYADSVKGRFTISRDNSKNTLFLQMNSLRTEDTAVYYCARGGDFDYWGQGTLVTVSS
VL: DIQMTQSPSSLSASVGDRVTITCRASQDIRKDLGWYQQKPGKAPKRLIYAASSLHSGVPSRFSGSGSGTEFTLTISSLQPEDFATYYCLQHNSYPMYTFGQGTKLEIK
B5: H1H6958N2: anti-PRLR antibody, receptor blocking, human IgG1 Fc form of H2M6958N2 of Table 1; HCVR/LCVR SEQ ID NOs 290/298 (antibody, V domains shown)
VH: B4 VH
VL: B4 VL
B6: H1H6774P: fully human anti-PRLR antibody, human IgG1 Fc; HCVR/LCVR SEQ ID NOs 34/42 (antibody, V domains shown)
VH: EVQLVESGGGLAQPGGSLRLSCVASGFTFSTYWMSWVRQAPGKGLDWVGNIKQDGSEQNYVDSVRGRFTISRDNAKNSLFLQMNSLRAEDTGVYYCATLLTKGDYWGQGTLVTVSS
VL: DIQMTQSPSSLSASVGDSVTITCRASQDISNYLDWFQQKPGKAPKSLIYAASILQGGVPSRFSGSGYGTDFTLTISSLQPEDFATYYCRQYKTYPFTFGPGTKVDIK

What was measured:
[1] = target: T1, native PRLR expressing T47D cells; test: FACS cell surface binding
Summary of the method: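 Flow cytometry on native PRLR-expressing T47D cells, alongside PRLR-overexpressing and parental HEK293 lines. Cells (1×10^5) incubated with antibody at 10 μg/ml, 30 min on ice, then PE anti-human secondary; binding reported as MFI fold over isotype control.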

HEK293 parental cells = test: FACS cell surface binding; parameters: species or system human
Summary of the method: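 HEK293 cells stably transfected with HA-tagged human, cynomolgus or mouse PRLR (G418-selected), or parental HEK293, were stained with 10 μg/ml antibody for 30 min on ice. Binding was then detected with 10 μg/ml PE anti-human secondary for 30 min on ice, and MFI was expressed as fold over isotype control.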

[2] = target: T2, monomeric human PRLR (hPRLR.mmh; SEQ ID NO:401) (Homo sapiens, UniProt P16471); test: Surface plasmon resonance (Biacore T200), antibody-capture format; assay type: binding; details: analyte hPRLR.mmh
T2 construct: soluble monomeric (hPRLR.mmh); mmh (myc-myc-hexahistidine) (C)
Summary of the method: (§1)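 Antibodies (human IgG1 Fc) captured on an anti-human Fc sensor surface; soluble monomeric (.mmh) or dimeric (.mFc) PRLR injected as analyte. ka and kd obtained by fitting to a 1:1 binding model.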

[3] = test system: Macaca fascicularis PRLR (mfPRLR.mmh; SEQ ID NO:403); test: as above; assay type: binding; details: analyte mfPRLR.mmh
Summary of the method: as §1

[4] = target: T3, dimeric human PRLR (hPRLR.mFc; SEQ ID NO:402) (Homo sapiens, UniProt P16471); test: as above; assay type: binding; details: analyte hPRLR.mFc
T3 construct: dimeric (hPRLR.mFc)
Summary of the method: as §1

PC3/PRLR tumors = test: PC3/PRLR xenograft, tumor size and tumor growth inhibition; assay type: in vivo, SCID mice; details: for Average Tumor Growth Inhibition (%) / Final Tumor size mm^3 (mean ± SEM): SCID mice
Summary of the method: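 MCF7/PRLR cells in mammary fat pad of female NCr nude mice, PC3/PRLR in flank of male SCID, T47D #11 in flank of female CB17 SCID, all with estrogen pellets.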

[5] = PC3/PRLR tumors TRIAL #1, multi-dose 15 mg/kg, Day 63
[6] = PC3/PRLR tumors TRIAL #2, multi-dose 5 mg/kg, Day 55
[7] = PC3/PRLR tumors TRIAL #2, multi-dose 15 mg/kg, Day 55

T3 sequence (P16471 with tags, fused parts or gaps): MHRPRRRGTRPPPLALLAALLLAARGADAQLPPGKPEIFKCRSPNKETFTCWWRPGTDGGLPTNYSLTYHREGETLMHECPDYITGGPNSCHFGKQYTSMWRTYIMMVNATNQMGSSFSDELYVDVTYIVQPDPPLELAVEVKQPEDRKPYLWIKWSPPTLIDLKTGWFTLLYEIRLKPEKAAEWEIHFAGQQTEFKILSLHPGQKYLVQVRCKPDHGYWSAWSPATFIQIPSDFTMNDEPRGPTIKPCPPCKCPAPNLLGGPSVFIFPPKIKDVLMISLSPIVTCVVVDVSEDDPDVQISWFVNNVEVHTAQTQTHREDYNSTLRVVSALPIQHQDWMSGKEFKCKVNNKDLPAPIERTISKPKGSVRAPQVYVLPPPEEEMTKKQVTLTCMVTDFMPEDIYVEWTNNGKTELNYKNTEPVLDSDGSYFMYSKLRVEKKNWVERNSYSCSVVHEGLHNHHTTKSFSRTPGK
Macaca fascicularis PRLR (mfPRLR.mmh; SEQ ID NO:403), sequence (as listed by the source): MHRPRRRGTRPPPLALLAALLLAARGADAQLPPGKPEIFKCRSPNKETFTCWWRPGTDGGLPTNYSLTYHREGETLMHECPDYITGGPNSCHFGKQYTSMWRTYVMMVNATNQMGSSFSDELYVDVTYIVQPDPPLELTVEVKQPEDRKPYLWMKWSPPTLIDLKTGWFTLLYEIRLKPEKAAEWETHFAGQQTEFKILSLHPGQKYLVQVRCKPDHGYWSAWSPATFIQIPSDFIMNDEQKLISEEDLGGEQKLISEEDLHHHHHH
T2 sequence (P16471 with tags, fused parts or gaps): as the sequence (as listed by the source) above, with V105I, T139A, M154I, T187I, I236T counted along it

Molecule | FACS Cell Binding [1] [Fold Above Background] | FACS Cell Binding (HEK293 parental cells) [Fold Above Background] | ka ([2]; 25° C.) [M/s] | kd ([2]; 25° C.) [s⁻¹] | ka ([2]; 37° C.) [M/s] | kd ([2]; 37° C.) [s⁻¹] | ka ([3]; 25° C.) [M/s] | kd ([3]; 25° C.) [s⁻¹] | ka ([3]; 37° C.) [M/s] | kd ([3]; 37° C.) [s⁻¹] | ka ([4]; 25° C.) [M/s] | kd ([4]; 25° C.) [s⁻¹] | ka ([4]; 37° C.) [M/s] | kd ([4]; 37° C.) [s⁻¹] | Average Tumor Growth Inhibition (%) (PC3/PRLR tumors; [5]) | Final Tumor size mm^3 (mean ± SEM) (PC3/PRLR tumors; [5]) [mm^3] | Average Tumor Growth Inhibition (%) (PC3/PRLR tumors; [7]) | Final Tumor size mm^3 (mean ± SEM) (PC3/PRLR tumors; [7]) [mm^3] | other results
B1 | 38 | 1 | 1.13e+06 | 0.00196 | 1.29e+06 | 0.00822 | 670000 | 0.00209 | 914000 | 0.00906 | 982000 | 0.000119 | 1.8e+06 | 0.000125 |  |  |  |  | 
B2 | 46 | 1 | 150000 | 7.35e-05 | 211000 | 0.000273 | 115000 | 0.000131 | 140000 | 0.000317 | 287000 | 1.97e-05 | 386000 | 7.09e-05 | 12 | 1185 ± 97 |  |  | 
B3 | 34 | 1 | 1.17e+06 | 0.00177 | 1.36e+06 | 0.0052 | 844000 | 0.00197 | 973000 | 0.00599 | 1.54e+06 | 8.41e-05 | 1.94e+06 | 7.77e-05 |  |  |  |  | 
B4 |  |  |  |  |  |  |  |  |  |  |  |  |  |  | 46 | 808 ± 83 | 94 | 230 ± 22 | Final Tumor size mm^3 (mean ± SEM) (PC3/PRLR tumors; PC3/PRLR tumors TRIAL #1, multi-dose 5 mg/kg, Day 63): 1247 ± 171 mm^3; Average Tumor Growth Inhibition (%) (PC3/PRLR tumors; [6]): 61%; Final Tumor size mm^3 (mean ± SEM) (PC3/PRLR tumors; [6]): 566 ± 63 mm^3; PC3/PRLR tumor growth (PC3/PRLR tumors; multi-dose, especially at 15 mg/kg): demonstrated inhibition of tumor growth
B5 | 37 | 1 | 233000 | 0.000272 | 413000 | 0.00131 | 195000 | 0.00028 | 328000 | 0.00134 | 422000 | 3.66e-05 | 829000 | 0.000139 | −19 | 1507 ± 106 | 28 | 917 ± 253 | 
B6 | 39 | 1 | 715000 | 0.000818 | 1.07e+06 | 0.00317 | 495000 | 0.000875 | 723000 | 0.00361 | 798000 | 8.94e-05 | 1.41e+06 | 0.000194 |  |  |  |  | 
